Experimental data from patent US20150203577A1 (Chugai, published 2015).

Assays:
[1] = biological target: T1, mouse FcγRIII (mouse, UniProt P08508 31-215); experiment: SPR Biacore T200
T1 construct: also called mFcγRIII; mFcgRIII
T1 chain: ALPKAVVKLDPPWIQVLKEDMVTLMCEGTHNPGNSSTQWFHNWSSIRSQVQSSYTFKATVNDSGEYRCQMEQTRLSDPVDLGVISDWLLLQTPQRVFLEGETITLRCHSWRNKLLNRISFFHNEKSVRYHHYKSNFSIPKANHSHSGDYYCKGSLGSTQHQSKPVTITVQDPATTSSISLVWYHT
From the text: (§1) The antibody H chain variable region used was the variable region H237 (SEQ ID NO: 1) of the H chain VH3-IgG1 of the anti-IL-6 receptor antibody Fv4-IgG1 described in WO2009/125825. The antibody L chain commonly used was the L chain MRAL-k0 (SEQ ID NO: 2) of the anti-IL-6 receptor antibody tocilizumab. The aforementioned 11 variants were used as templates to introduce the alteration. These variants were expressed and purified by the method of Reference Example 1 and evaluated for their binding to mFcγRII and mFcγRIII by the method of Reference Example 2 using Biacore T200.
Each altered antibody was analyzed for its interaction with each Fcγ receptor prepared above using Biacore T100 (GE Healthcare Japan Corp.), Biacore T200 (GE Healthcare Japan Corp.), Biacore A100, or Biacore 4000. The running buffer used was HBS-EP+ (GE Healthcare Japan Corp.). The assay temperature was set to 25° C. […]
In order to calculate the KD value of each altered antibody for FcγR, kinetic analysis was conducted according to the following method: first, the antibody of interest was captured onto any of these chips and allowed to interact with mFcγR diluted with a running buffer. […] From these values, the dissociation constant KD (mol/L) was calculated.

[2] = biological target: T2, mouse FcγRIII extracellular domain, C-terminally His-tagged (mouse, UniProt P08508 31-215); experiment: SPR Biacore T200, KD ratio
T2 construct: the whole entry is named; also called mFcγRIII; mFcgRIII
T2 chain: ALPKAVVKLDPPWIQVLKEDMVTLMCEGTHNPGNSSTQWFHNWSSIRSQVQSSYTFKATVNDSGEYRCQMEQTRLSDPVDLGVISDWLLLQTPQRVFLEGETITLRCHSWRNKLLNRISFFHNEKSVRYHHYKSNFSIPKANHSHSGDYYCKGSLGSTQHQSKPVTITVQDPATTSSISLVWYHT
Experimental: (§2) As for alterations, “X000Z” represents the substitution of amino acid X at EU numbering position 000 by amino acid Z. In this context, X and Z represent the one-letter codes of the amino acid residues.
(§3) Each altered antibody was analyzed for its interaction with each Fcγ receptor prepared above using Biacore T100 (GE Healthcare Japan Corp.), Biacore T200 (GE Healthcare Japan Corp.), Biacore A100, or Biacore 4000. The running buffer used was HBS-EP+ (GE Healthcare Japan Corp.). The assay temperature was set to 25° C. The sensor chips used were chips prepared by immobilizing Protein L (ACTIGEN or BioVision) onto Series S Sensor Chip CM5 (GE Healthcare Japan Corp.) or Series S Sensor Chip CM4 (GE Healthcare Japan Corp.) by the amine coupling method.
(§4) In order to calculate the KD value of each altered antibody for FcγR, kinetic analysis was conducted according to the following method: first, the antibody of interest was captured onto any of these chips and allowed to interact with mFcγR diluted with a running buffer. For the obtained sensorgram, the assay results were globally fit into the 1:1 Langmuir binding model using Biacore Evaluation Software to calculate an association rate constant ka (L/mol/s) and a dissociation rate constant kd (1/s). From these values, the dissociation constant KD (mol/L) was calculated.

[3] = biological target: T3, mouse FcγRII extracellular domain, C-terminally His-tagged (mouse, UniProt P08101 30-210); experiment: SPR Biacore T200, KD ratio
T3 construct: the whole entry is named; also called mFcγRII; mFcgRII
T3 sequence: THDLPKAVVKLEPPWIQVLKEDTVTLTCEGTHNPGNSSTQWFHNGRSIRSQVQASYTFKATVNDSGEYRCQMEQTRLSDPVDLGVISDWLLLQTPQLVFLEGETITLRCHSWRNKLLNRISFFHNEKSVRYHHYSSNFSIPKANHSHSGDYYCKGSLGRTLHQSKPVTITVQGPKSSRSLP
Experimental: as §2, §3, §4

[4] = biological target: T2, mouse FcγRIII extracellular domain, …; experiment: SPR Biacore T200, antibody captured on Protein L
Experimental: as §2, §3, §4

[5] = biological target: T3, mouse FcγRII extracellular domain, …; experiment: SPR Biacore T200, antibody captured on Protein L
Experimental: as §2, §3, §4

[6] = biological target: T4, mouse FcγRII extracellular domain, C-terminal His tag (mouse, UniProt P08101 30-210); experiment: SPR (Biacore T200); KD of H237-mIgG1/MRAL-k0 / KD of variant
T4 construct: Whole entry named; also called mFcγRII; mFcgRII
T4 sequence: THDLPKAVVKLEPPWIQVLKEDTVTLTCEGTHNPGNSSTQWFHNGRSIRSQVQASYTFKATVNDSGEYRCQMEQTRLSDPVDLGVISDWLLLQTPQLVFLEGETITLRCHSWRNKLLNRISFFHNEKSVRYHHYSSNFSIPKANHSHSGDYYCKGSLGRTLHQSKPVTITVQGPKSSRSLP
From the text: as §1, with “7” for “11”, “substitute the amino acids at the alteration sites by the amino acids before” for “introduce”
as §3

[7] = biological target: T5, mouse FcγRIII extracellular domain, C-terminal His tag (mouse, UniProt P08508 31-215); experiment: SPR (Biacore T200)
T5 construct: Whole entry named; also called mFcγRIII; mFcgRIII
T5 chain: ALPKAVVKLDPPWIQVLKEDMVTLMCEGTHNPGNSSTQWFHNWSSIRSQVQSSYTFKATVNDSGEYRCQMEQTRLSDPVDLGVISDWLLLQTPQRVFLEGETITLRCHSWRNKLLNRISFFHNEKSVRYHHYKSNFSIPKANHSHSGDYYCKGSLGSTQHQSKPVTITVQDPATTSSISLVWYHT
From the text: as §1, with “7” for “11”, “substitute the amino acids at the alteration sites by the amino acids before” for “introduce”
as §3

B1: H237-MB697/MRAL-k0 (antibody, mouse IgG1, kappa)
heavy: QVQLQESGPGLVKPSETLSLTCAVSGHSISHDHAWSWVRQPPGEGLEWIGFISYSGITNYNPSLQGRVTISRDNSKNTLYLQMNSLRAEDTAVYYCARSLARTTAMDYWGEGTLVTVSSAKTTPPSVYPLAPGSAAQTNSMVTLGCLVKGYFPEPVTVTWNSGSLSSGVHTFPAVLQSDLYTLSSSVTVPSSTWPSETVTCNVAHPASSTKVDKKIVPRDCGCKPCICEPPEVEFVFIFPPKPKDVLTITLTPKVTCVVVDISKDDPEVQFSWFVDDVEVHTAQTQPREEQFNSTFRSVSELPIMHQDWLNGKEFKCRVNSAAFPAPIEKTISKTKGRPKAPQVYTIPPPKEQMAKDKVSLTCMITDFFPEDITVEWQWNGQPAENYKNTQPIMDTDGSYFVYSKLNVQKSNWEAGNTFTCSVLHEGLHNHHTEKSLSHSPGK
light: not shown
notes: copies: 2 + 2
binding result [1]: no binding

B2: H237-MB367/MRAL-k0 (antibody, mouse IgG1, kappa)
heavy: QVQLQESGPGLVKPSETLSLTCAVSGHSISHDHAWSWVRQPPGEGLEWIGFISYSGITNYNPSLQGRVTISRDNSKNTLYLQMNSLRAEDTAVYYCARSLARTTAMDYWGEGTLVTVSSAKTTPPSVYPLAPGSAAQTNSMVTLGCLVKGYFPEPVTVTWNSGSLSSGVHTFPAVLQSDLYTLSSSVTVPSSTWPSETVTCNVAHPASSTKVDKKIVPRDCGCKPCICEANEVEDVFIFPPKPKDVLTITLTPKVTCVVVDISKDDPEVQFSWFVDDVEVHTAQTQPREEQFNSTFRSVSELPIMHQDWLNGKEFKCRVNSAAFPAPIEKTISKTKGRPKAPQVYTIPPPKEQMAKDKVSLTCMITDFFPEDITVEWQWNGQPAENYKNTQPIMDTDGSYFVYSKLNVQKSNWEAGNTFTCSVLHEGLHNHHTEKSLSHSPGK
light: not shown
notes: T230E/V231A/P232N/S238E/S239D (EU) against H237-mIgG1; copies: 2 + 2
relative mFcγRIII-binding activity (mIgG1 = 1) [2]: 6.2 fold
relative mFcγRII-binding activity (mIgG1 = 1) [3]: 159 fold
Kd [4]: 45.4 nM
Kd [5]: 1.32 nM

B3: H237-MB701/MRAL-k0 (antibody, mouse IgG1, kappa)
heavy: QVQLQESGPGLVKPSETLSLTCAVSGHSISHDHAWSWVRQPPGEGLEWIGFISYSGITNYNPSLQGRVTISRDNSKNTLYLQMNSLRAEDTAVYYCARSLARTTAMDYWGEGTLVTVSSAKTTPPSVYPLAPGSAAQTNSMVTLGCLVKGYFPEPVTVTWNSGSLSSGVHTFPAVLQSDLYTLSSSVTVPSSTWPSETVTCNVAHPASSTKVDKKIVPRDCGCKPCICEVPEEEFVFIFPPKPKDVLTITLTPKVTCVVVDISKDDPEVQFSWFVDDVEVHTAQTQPREEQFNSTFRSVSELPIMHQDWLNGKEFKCRVNSAAFPAPIEKTISKTKGRPKAPQVYTIPPPKEQMAKDKVSLTCMITDFFPEDITVEWQWNGQPAENYKNTQPIMDTDGSYFVYSKLNVQKSNWEAGNTFTCSVLHEGLHNHHTEKSLSHSPGK
light: not shown
notes: copies: 2 + 2
relative mFcγRII-binding activity (mIgG1 = 1) [6]: 0.187 fold
binding result [7]: no binding
